# Substitutions are numbered along the chain they refer to.
# B1: Camrelizumab (antibody, V domains shown)
# VH: EVQLVESGGGLVQPGGSLRLSCAASGFTFSSYMMSWVRQAPGKGLEWVATISGGGANTYYPDSVKGRFTISRDNAKNSLYLQMNSLRAEDTAVYYCARQLYYFDYWGQGTTVTVSS
# VL: DIQMTQSPSSLSASVGDRVTITCLASQTIGTWLTWYQQKPGKAPKLLIYTATSLADGVPSRFSGSGSGTDFTLTISSLQPEDFATYYCQQVYSIPWTFGGGTKVEIK
# B2: Seq No.6-RFc (PD-1 variant SEQ ID NO: 6 fused to rabbit IgG Fc) (Fc fusion)
# chain: PGWFLDSPDRPWNPPTFSPALLVVTEGDNATFTCSFSNTSESFVLNWYRMSPSNQTDKLAAFPEDFFTVSQDCRFRVTQLPNGRDFHMSVVRARRNDSGTYLCGAISLSTPVWIKESLRAELRVTERRAEVPTAH
# notes: Signal peptide 1-20 left out; also called variant 5; 56#-16; not shown: rabbit IgG Fc (RFc) of vector pcDNA3.4-RFc
# B3: Toripalimab (antibody, V domains shown)
# VH: QGQLVQSGAEVKKPGASVKVSCKASGYTFTDYEMHWVRQAPIHGLEWIGVIESETGGTAYNQKFKGRVTITADKSTSTAYMELSSLRSEDTAVYYCAREGITTVATTYYWYFDVWGQGTTVTVSS
# VL: DVVMTQSPLSLPVTLGQPASISCRSSQSIVHSNGNTYLEWYLQKPGQSPQLLIYKVSNRFSGVPDRFSGSGSGTDFTLKISRVEAEDVGVYYCFQGSHVPLTFGQGTKLEIKR
# B4: Seq No.2-RFc (PD-1 variant SEQ ID NO: 2 fused to rabbit IgG Fc) (Fc fusion)
# chain: B2 chain with F66R, F67S, T68Q, V69P, S70G
# notes: signal peptide 1-20 left out; also called variant 1; not shown: rabbit IgG Fc (RFc) of vector pcDNA3.4-RFc
# B5: Seq No.4-RFc (PD-1 variant SEQ ID NO: 4 fused to rabbit IgG Fc) (Fc fusion)
# chain: B2 chain with E64W, D65M, F67C, T68F, V69P, S70G
# notes: Signal peptide 1-20 left out; also called variant 3; not shown: rabbit IgG Fc (RFc) of vector pcDNA3.4-RFc
# B6: Seq No.5-RFc (PD-1 variant SEQ ID NO: 5 fused to rabbit IgG Fc) (Fc fusion)
# chain: B2 chain with F67R, T68N, V69C, S70T
# notes: Signal peptide 1-20 left out; also called variant 4; not shown: rabbit IgG Fc (RFc) of vector pcDNA3.4-RFc
# B7: Sintilimab (antibody, V domains shown)
# VH: QVQLVQSGAEVKKPGSSVKVSCKASGGTFSSYAISWVRQAPGQGLEWMGLIIPMFDTAGYAQKFQGRVAITVDESTSTAYMELSSLRSEDTAVYYCARAEHSSTGTFDYWGQGTLVTVSS
# VL: DIQMTQSPSSVSASVGDRVTITCRASQGISSWLAWYQQKPGKAPKLLISAASSLQSGVPSRFSGSGSGTDFTLTISSLQPEDFATYYCQQANHLPFTFGGGTKVEIK
# B8: Seq No.3-RFc (PD-1 variant SEQ ID NO: 3 fused to rabbit IgG Fc) (Fc fusion)
# chain: B2 chain with E64F, D65L, F67N, T68L, V69P, S70G
# notes: Signal peptide 1-20 left out; also called variant 2; not shown: rabbit IgG Fc (RFc) of vector pcDNA3.4-RFc
# B9: Seq No.7-RFc (PD-1 variant SEQ ID NO: 7 fused to rabbit IgG Fc) (Fc fusion)
# chain: B2 chain with F66R, F67I, T68N, V69R
# notes: Signal peptide 1-20 left out; also called variant 6; not shown: rabbit IgG Fc (RFc) of vector pcDNA3.4-RFc
# How the values were obtained:
# [1] = molecular target: T1, Seq No.1-RFc (wild-type PD-1 fused to rabbit IgG Fc) (human; rabbit, UniProt Q15116 21-155); test: SPR, Biacore T200; PD1-RFc mobile phase, antibody stationary phase
# T1 construct: also called PD1-RFc; not shown: rabbit IgG Fc (RFc) of vector pcDNA3.4-RFc
# Tilelizumab = molecular target: T2, Tilelizumab; test: as above
# T2 construct: Biotin-labelled in flow cytometry; also called Tevimbra; Tislelizumab
# Toripalimab = molecular target: B3; test: SPR, Biacore T200
Kd [1],koff [1],kon [1],Kd (Tilelizumab),koff (Tilelizumab),kon (Tilelizumab),Kd (Toripalimab),Binder
0.229 nM,0.000389 s⁻¹,1.7e+06 M⁻¹ s⁻¹,–,–,–,–,B1
–,–,–,0.315 nM,0.000836 s⁻¹,2.66e+06 M⁻¹ s⁻¹,–,B2
0.178 nM,0.00115 s⁻¹,6.47e+06 M⁻¹ s⁻¹,–,–,–,–,B3
–,–,–,0.085 nM,0.000174 s⁻¹,2.05e+06 M⁻¹ s⁻¹,0.395 nM,B4
–,–,–,2.94 nM,0.00203 s⁻¹,691000 M⁻¹ s⁻¹,–,B5
–,–,–,0.567 nM,0.0003 s⁻¹,530000 M⁻¹ s⁻¹,–,B6
0.00141 nM,5.11e-06 s⁻¹,3.62e+06 M⁻¹ s⁻¹,–,–,–,–,B7
–,–,–,1.78 nM,0.00105 s⁻¹,588000 M⁻¹ s⁻¹,–,B8
–,–,–,0.0492 nM,0.000109 s⁻¹,2.21e+06 M⁻¹ s⁻¹,–,B9
